Numbering of substitutions follows the chain as printed. In names and notes the source's numbering stands. Read-outs that look alike come from different tables or passages of the source. One block for each binder: values may come before it.
Experiments:
[1] = target: T1, integrin αvβ3 (R & D Systems, Inc.) (UniProt P06756 31-992; P05106 27-718); assay: ELISA on coated integrin αvβ3 (1 µg/mL), detection with HRP-labeled anti-human IgG antibody
T1 construct: Bought protein
Protocol: The integrin αvβ3 binding of each molecule with the RGD (Arg-Gly-Asp) peptide inserted in the Fc region was assessed by ELISA (enzyme-Linked immunosorbent assay). Specifically, integrin αvβ3 (R & D Systems, Inc.) diluted to 1 μg/mL with a coating buffer (0.1 M NaHCO₃, pH 9.6) was added at a concentration of 100 μL/well to Nunc-Immuno™ MicroWell™ 96 well solid plates (Nunc) to immobilize the integrin αvβ3 to the plates. Each well of the antigen (integrin αvβ3)-immobilized plates was washed three times with 250 μL of a TBS solution containing 0.1 g/L calcium chloride and 0.1 g/L magnesium chloride (referred to as a TBS(+) solution). A TBS solution containing 5% BSA, 0.1 g/L calcium chloride, and 0.1 g/L magnesium chloride (referred to as a blocking solution) was added thereto at a concentration of 250 μL/well, and the plates were incubated at room temperature for 1 hour.
After removal of the blocking solution, each well was washed three times with a TBS(+) solution. […]
After removal of the HRP-labeled antibody solution, each well was washed three times with a TBS(+) solution. […] The absorbance of the solution whose reaction had been stopped was measured at a wavelength of 450 nm.

[2] = target: T2, FcγRIIa(R) extracellular domain with C-terminal His tag (human, UniProt P12318 34-217); assay: SPR (Biacore), captured antibody, FcγR analyte, 1:1 Langmuir fit
T2 construct: extracellular domain; polymorphic form R131; also called FcγRIIa R type
T2 sequence: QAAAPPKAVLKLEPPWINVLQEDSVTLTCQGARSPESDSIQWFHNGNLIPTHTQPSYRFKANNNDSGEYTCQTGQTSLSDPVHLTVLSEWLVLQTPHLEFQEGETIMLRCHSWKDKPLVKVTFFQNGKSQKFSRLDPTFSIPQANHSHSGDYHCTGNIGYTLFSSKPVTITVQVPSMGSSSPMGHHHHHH
Protocol: (§1) The antibody of interest was analyzed for its interaction with FcγR using a BiaCore™ T100, BiaCore™ A100, or BiaCore™ 4000 surface plasmon resonance system (GE Healthcare Japan Corp.). The running buffer used was HBS-EP+ (GE Healthcare Japan Corp.). The assay temperature was set to 25° C. The sensor chips used were: a chip prepared by immobilizing antigenic peptides onto Series S Sensor Chip CM5 (GE Healthcare Japan Corp.) by the amine coupling method; a chip prepared by immobilizing antigenic peptides biotinylated in advance onto Series S Sensor Chip SA (certified) (GE Healthcare Japan Corp.) through their interaction; a chip prepared by immobilizing protein L (ACTIGEN, BioVision, Inc.) onto Series S Sensor Chip CM5 (GE Healthcare Japan Corp.); and a chip prepared by immobilizing protein A/G (Thermo Fisher Scientific K.K.) onto Series S Sensor Chip CM5 (GE Healthcare Japan Corp.). The antibody of interest was captured onto any of these chips and allowed to interact with FcγR diluted with a running buffer. The antibody captured on the chip was washed off through the reaction of 10 mM glycine-HCl (pH 1.5) to regenerate the chip, which was repetitively used.

[3] = target: T3, FcγRIIIa(V) extracellular domain with C-terminal His tag (human, UniProt P08637 17-208); assay: as above
T3 construct: extracellular domain; polymorphic form V158; also called FcγRIIIa V type
T3 sequence (P08637 other isoform, or with tags, fused parts or gaps): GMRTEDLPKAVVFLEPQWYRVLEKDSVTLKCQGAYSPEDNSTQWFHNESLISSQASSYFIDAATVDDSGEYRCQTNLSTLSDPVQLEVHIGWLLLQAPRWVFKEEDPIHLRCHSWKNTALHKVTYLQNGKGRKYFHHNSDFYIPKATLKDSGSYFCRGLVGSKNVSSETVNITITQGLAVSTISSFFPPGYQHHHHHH
Protocol: as §1

[4] = target: T4, FcγRIIIa(F) extracellular domain with C-terminal His tag (human, UniProt P08637 17-208); assay: as above
T4 construct: extracellular domain; polymorphic form F158; also called FcγRIIIa F type
T4 sequence (P08637 other isoform, or with tags, fused parts or gaps): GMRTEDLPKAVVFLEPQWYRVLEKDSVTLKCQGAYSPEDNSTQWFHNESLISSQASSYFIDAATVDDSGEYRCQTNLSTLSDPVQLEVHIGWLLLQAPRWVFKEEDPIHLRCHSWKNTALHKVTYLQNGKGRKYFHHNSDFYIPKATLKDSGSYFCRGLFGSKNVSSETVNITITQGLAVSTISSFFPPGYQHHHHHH
Protocol: as §1

[5] = target: T5, FcγRIIa(H) extracellular domain with C-terminal His tag (human, UniProt P12318 34-217); assay: as above
T5 construct: extracellular domain; polymorphic form H131; also called FcγRIIa H type
T5 sequence: T2 sequence with R134H
Protocol: as §1

[6] = target: T6, FcγRIa extracellular domain with C-terminal His tag (human, UniProt P12314 16-292); assay: as above
T6 construct: extracellular domain
T6 sequence (P12314 other isoform, or with tags, fused parts or gaps): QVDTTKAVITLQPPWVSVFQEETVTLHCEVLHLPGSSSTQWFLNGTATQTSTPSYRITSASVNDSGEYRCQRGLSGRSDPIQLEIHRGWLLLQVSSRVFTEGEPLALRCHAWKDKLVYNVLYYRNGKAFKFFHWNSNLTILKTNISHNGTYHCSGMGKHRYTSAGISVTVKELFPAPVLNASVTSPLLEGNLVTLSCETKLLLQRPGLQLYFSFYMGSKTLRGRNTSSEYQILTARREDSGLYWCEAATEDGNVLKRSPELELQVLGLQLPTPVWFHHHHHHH
Protocol: as §1

[7] = target: T7, FcγRIIb extracellular domain with C-terminal His tag (human, UniProt P31994 43-217); assay: SPR (Biacore), captured antibody, FcγR analyte, 1:1 Langmuir fit; afucosylated antibody (same sequence as G1d, other glycoform)
T7 construct: extracellular domain
T7 sequence: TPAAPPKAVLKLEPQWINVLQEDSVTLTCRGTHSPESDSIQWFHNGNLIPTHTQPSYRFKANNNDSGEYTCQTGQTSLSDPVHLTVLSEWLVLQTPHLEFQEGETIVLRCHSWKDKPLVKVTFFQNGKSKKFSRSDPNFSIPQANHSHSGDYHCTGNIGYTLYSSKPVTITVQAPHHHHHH

[8] = target: T2, FcγRIIa(R) extracellular domain with …; assay: SPR (Biacore), captured antibody, FcγR analyte, 1:1 Langmuir fit; remark: listed apart in the source
Protocol: as §1

[9] = target: T3, FcγRIIIa(V) extracellular domain with …; assay: as above; remark: listed apart in the source
Protocol: as §1

[10] = target: T4, FcγRIIIa(F) extracellular domain with …; assay: as above; remark: listed apart in the source
Protocol: as §1

[11] = target: T5, FcγRIIa(H) extracellular domain with …; assay: as above; remark: listed apart in the source
Protocol: as §1

[12] = target: T6, FcγRIa extracellular domain with …; assay: as above; remark: listed apart in the source
Protocol: as §1

[13] = target: T7, FcγRIIb extracellular domain with …; assay: SPR (Biacore), captured antibody, FcγR analyte, 1:1 Langmuir fit; afucosylated G1d; Table 8 reprint of Table 7
Protocol: as §1

[14] = target: T7, FcγRIIb extracellular domain with …; assay: SPR (Biacore), captured antibody, FcγR analyte, 1:1 Langmuir fit; naturally occurring IgG1 (not afucosylated)
Protocol: as §1

[15] = target: T8, FcγRIIIa extracellular domain with C-terminal His tag (allotype not given) (UniProt P08637 17-208, limits assumed); assay: SPR (Biacore), from the KD values of Table 5
T8 construct: extracellular domain; also called 3a

[16] = target: T9, FcγRIa extracellular domain with C-terminal His tag (UniProt P12314 16-292, limits assumed); assay: SPR (Biacore), as the text refers to Example 3
T9 construct: extracellular domain; also called 1a
T9 sequence (P12314 other isoform, or with tags, fused parts or gaps limits assumed): as the sequence (P12314 other isoform, or with tags, fused parts or gaps) above

[17] = target: T10, FcγRIIa R extracellular domain with C-terminal His tag (UniProt P12318 34-217, limits assumed); assay: SPR (Biacore), as the text refers to Example 3
T10 construct: extracellular domain; also called 2aR
T10 sequence: T2 sequence

[18] = target: T11, FcγRIIb extracellular domain with C-terminal His tag (UniProt P31994 43-217, limits assumed); assay: SPR (Biacore), as the text refers to Example 3
T11 construct: extracellular domain; also called 2b
T11 sequence: T7 sequence

[19] = target: T12, FcγRIIa H extracellular domain with C-terminal His tag (UniProt P12318 34-217, limits assumed); assay: SPR (Biacore), as the text refers to Example 3
T12 construct: extracellular domain; also called 2aH
T12 sequence: T2 sequence with R134H

T1 sequence (P06756 31-992, chain 1 of 2): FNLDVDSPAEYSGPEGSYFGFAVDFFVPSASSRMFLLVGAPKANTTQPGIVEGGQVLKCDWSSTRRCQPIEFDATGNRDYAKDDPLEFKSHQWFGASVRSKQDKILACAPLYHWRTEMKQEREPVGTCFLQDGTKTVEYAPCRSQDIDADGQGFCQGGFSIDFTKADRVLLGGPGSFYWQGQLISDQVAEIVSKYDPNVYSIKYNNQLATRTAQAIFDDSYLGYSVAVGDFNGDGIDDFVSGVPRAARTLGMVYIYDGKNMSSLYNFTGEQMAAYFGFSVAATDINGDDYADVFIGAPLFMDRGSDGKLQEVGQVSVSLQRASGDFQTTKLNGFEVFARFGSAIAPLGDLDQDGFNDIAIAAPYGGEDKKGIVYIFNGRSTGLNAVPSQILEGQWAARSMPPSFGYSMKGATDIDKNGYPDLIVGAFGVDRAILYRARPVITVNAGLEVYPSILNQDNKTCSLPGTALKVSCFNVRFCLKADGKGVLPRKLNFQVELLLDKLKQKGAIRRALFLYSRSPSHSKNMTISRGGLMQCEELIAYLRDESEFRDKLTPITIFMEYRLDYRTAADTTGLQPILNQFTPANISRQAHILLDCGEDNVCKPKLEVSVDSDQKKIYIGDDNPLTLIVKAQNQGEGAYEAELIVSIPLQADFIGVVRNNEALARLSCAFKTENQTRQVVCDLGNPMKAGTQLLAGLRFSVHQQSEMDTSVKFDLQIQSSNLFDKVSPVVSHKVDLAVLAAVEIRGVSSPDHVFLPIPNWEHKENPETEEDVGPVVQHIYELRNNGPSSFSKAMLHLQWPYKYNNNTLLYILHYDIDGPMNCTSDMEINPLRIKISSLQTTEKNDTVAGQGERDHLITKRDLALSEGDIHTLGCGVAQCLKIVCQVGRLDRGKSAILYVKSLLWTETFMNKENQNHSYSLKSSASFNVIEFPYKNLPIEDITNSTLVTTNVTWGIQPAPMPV
T1 sequence (P05106 27-718, chain 2 of 2): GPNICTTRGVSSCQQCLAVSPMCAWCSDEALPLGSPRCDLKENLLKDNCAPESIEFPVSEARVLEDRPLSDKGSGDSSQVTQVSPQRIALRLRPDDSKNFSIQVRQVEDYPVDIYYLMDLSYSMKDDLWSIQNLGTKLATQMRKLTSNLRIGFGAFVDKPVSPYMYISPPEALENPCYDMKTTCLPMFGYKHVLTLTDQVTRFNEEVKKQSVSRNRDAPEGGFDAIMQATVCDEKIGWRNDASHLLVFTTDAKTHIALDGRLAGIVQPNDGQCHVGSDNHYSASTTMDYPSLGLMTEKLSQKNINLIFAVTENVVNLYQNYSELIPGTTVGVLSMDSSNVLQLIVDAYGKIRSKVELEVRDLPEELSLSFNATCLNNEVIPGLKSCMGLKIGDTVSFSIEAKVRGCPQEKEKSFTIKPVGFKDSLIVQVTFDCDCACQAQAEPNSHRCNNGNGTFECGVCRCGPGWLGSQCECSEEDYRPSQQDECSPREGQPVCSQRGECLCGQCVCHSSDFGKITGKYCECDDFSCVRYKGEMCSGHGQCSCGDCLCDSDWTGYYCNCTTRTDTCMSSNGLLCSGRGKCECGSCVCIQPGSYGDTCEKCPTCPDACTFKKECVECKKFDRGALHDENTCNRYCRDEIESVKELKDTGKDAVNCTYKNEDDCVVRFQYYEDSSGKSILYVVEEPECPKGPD

B2: H240-afucosyl_G1d/L73-k0 (antibody, human IgG1, kappa)
heavy: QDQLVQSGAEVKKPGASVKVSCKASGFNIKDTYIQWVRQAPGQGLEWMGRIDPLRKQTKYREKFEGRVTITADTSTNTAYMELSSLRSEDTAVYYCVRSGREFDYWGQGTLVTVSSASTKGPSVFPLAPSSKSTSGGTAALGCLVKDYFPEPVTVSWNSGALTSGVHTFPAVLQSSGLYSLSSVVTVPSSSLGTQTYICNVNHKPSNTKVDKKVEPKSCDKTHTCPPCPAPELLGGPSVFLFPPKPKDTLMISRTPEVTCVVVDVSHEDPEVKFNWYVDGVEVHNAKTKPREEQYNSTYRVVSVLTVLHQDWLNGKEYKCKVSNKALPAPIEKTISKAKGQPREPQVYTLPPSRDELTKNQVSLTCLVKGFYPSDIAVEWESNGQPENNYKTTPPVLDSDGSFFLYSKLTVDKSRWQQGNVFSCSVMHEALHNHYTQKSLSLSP
light: DIQMTQSPSSLSASVGDRVTITCRASQDIHKYIAWYQQKPGQAPRLLIQYTSTLQPGVPSRFSGSGSGTDYTFTISSLQPEDIATYYCLQYEQLRTFGGGTKVEIKRTVAAPSVFIFPPSDEQLKSGTASVVCLLNNFYPREAKVQWKVDNALQSGNSQESVTEQDSKDSTYSLSSTLTLSKADYEKHKVYACEVTHQGLSSPVTKSFNRGEC
modifications: afucosylated (fucose-deficient sugar chain)
notes: afucosylated form of the anti-epiregulin IgG1 H240-G1d/L73-k0; also called afucosylated antibody
Kd [2]: 490 nM
Kd [3]: 6.9 nM
Kd [4]: 78 nM
Kd [5]: 780 nM
Kd [6]: 0.43 nM
Kd [7]: 2600 nM
Kd [8]: 490 nM
Kd [9]: 6.9 nM
Kd [10]: 78 nM
Kd [11]: 780 nM
Kd [12]: 0.43 nM
Kd [13]: 2600 nM

B3: H240-G1d/L73-k0 (antibody, human IgG1, kappa)
heavy: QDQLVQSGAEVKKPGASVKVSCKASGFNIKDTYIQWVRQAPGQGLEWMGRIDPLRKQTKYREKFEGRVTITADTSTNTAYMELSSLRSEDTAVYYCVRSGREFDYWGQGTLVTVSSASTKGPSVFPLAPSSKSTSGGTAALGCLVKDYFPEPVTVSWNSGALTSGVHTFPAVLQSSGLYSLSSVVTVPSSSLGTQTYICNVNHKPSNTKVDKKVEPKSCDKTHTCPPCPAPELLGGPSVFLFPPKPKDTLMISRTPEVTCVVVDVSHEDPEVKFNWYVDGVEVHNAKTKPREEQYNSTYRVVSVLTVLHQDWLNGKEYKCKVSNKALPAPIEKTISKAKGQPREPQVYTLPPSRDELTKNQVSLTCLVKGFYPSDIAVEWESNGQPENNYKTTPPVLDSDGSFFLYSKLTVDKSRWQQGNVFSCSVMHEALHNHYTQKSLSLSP
light: B2 light
notes: anti-epiregulin IgG1; also called H240-G1d/H240-G1d/L73-k0; naturally occurring IgG1
Kd [2]: 880 nM
Kd [3]: 310 nM
Kd [4]: 1400 nM
Kd [5]: 660 nM
Kd [6]: 0.23 nM
Kd [8]: 880 nM
Kd [9]: 310 nM
Kd [10]: 1400 nM
Kd [11]: 660 nM
Kd [12]: 0.23 nM
Kd [14]: 6000 nM

B4: GpH7-A57/GpH7-B78/GpL16-k0 (antibody, human IgG1, kappa)
heavy 1: QVQLVQSGAEVKKPGASVTVSCKASGYTFTDYEMHWIRQPPGEGLEWIGAIDPKTGDTAYSESFQDRVTLTADKSTSTAYMELSSLTSEDTAVYYCTRFYSYTYWGQGTLVTVSSASTKGPSVFPLAPSSKSTSGGTAALGCLVKDYFPEPVTVSWNSGALTSGVHTFPAVLQSSGLYSLSSVVTVPSSSLGTQTYICNVNHKPSNTKVDKKVEPKSCDKTHTCPPCPAPELLGGPDVFLFPPKPKDTLMISRTPEVTCVVVDVSHEDPEVKFNWYVDGVEVHNAKTKPREEQYNSTYRVVSVLTVLHQDWLNGKEYKCKVSNKALPLPEEKTISKAKGQPREPQVYTLPPSRKELTKNQVSLTCLVKGFYPSDIAVEWESNGQPENNYKTTPPVLDSDGSFFLYSKLTVDKSRWQQGNVFSCSVMHEALHNRYTQKSLSLSP
heavy 2: B4 heavy 1 with K354D, R433H, K437E
light: DIVMTQSPLSLPVTPGEPASISCQASESLVHSNRNTYLHWYLQKPGQSPQLLIYKVSNRFSGVPDRFSGSGSGTDFTLKISRVEAEDVGVYYCSQNTHVPPTFGQGTKVEIERTVAAPSVFIFPPSDEQLKSGTASVVCLLNNFYPREAKVQWKVDNALQSGNSQESVTEQDSKDSTYSLSSTLTLSKADYEKHKVYACEVTHQGLSSPVTKSFNRGEC
notes: Called homodimerized: S239D, A330L, I332E in both H chains
fold FcγRIIIa-binding activity against the corresponding heterodimerized antibody (GpH7-A5/GpH7-B78/GpL16-k0) [15]: ~9 times

B6: GpH7-TA7/GpH7-B78/GpL16-k0 (antibody, human IgG1, kappa)
heavy 1: B4 heavy 1 with L232Y, G234W, D237S, S296A, L328A, E330I
heavy 2: B4 heavy 1 with K354D, R433H, K437E
light: B4 light
notes: L234Y, G236W, S298A in one H chain and S239D, A330L, I332E in the other
fold FcγRIIIa-binding activity against GpH7-A5/GpH7-B78/GpL16-k0 [15]: ≥ 10 times

The next lines start with the values.

binding result [1]: no binding (tested: 100 µg/mL)
B1: H240-Kn125/H240-Hl076/L73-k0 (antibody, human IgG1, kappa)
heavy 1: QDQLVQSGAEVKKPGASVKVSCKASGFNIKDTYIQWVRQAPGQGLEWMGRIDPLRKQTKYREKFEGRVTITADTSTNTAYMELSSLRSEDTAVYYCVRSGREFDYWGQGTLVTVSSASTKGPSVFPLAPSSKSTSGGTAALGCLVKDYFPEPVTVSWNSGALTSGVHTFPAVLQSSGLYSLSSVVTVPSSSLGTQTYICNVNHKPSNTKVDKKVEPKSCDKTHTCPPCPAPEYQWGPMVFLFPPKPKDTLMISRTPEVTCVVVDVSDEEPEVKFNWYVDGVEVHNAKTKPREEQYNATYRVVSVLTVLHQDWLNGKEYKCKVSNKALPAPIEKTISKAKGQPREPQVCTLPPSRDELTKNQVSLWCLVKGFYPSDIAVEWESNGQPENNYKTTPPVLDSDGSFFLYSKLTVDKSRWQQGNVFSCSVMHEALHNHYTQKSLSLSP
heavy 2: QDQLVQSGAEVKKPGASVKVSCKASGFNIKDTYIQWVRQAPGQGLEWMGRIDPLRKQTKYREKFEGRVTITADTSTNTAYMELSSLRSEDTAVYYCVRSGREFDYWGQGTLVTVSSASTKGPSVFPLAPSSKSTSGGTAALGCLVKDYFPEPVTVSWNSGALTSGVHTFPAVLQSSGLYSLSSVVTVPSSSLGTQTYICNVNHKPSNTKVDKKVEPKSCDKTHTCPPCPAPELLGGPSVFLFPPKPKDTLMISRTPEVTCVVVDVSHEEPEVKFNWYVDGVEVHNAKTKPREEQYNSTYRVVSVLTVLHQDWLNGKEYKCKVSNDALPMPIEETISKAKGQPREPQVYTLPPSRCELTKNQVSLSCAVKGFYPSDIAVEWESNGQPENNYKTTPPVLDSDGSFFLVSKLTVDKSRWQQGNVFSCSVMHEALHNHYTQKSLSLSP
light: B2 light
notes: also called Hl076/Kn125; parent peptide

binding result [16]: binds
binding result [17]: binds
binding result [18]: binds
binding result [19]: binds
B5: GpH7-B3/GpL16-k0 (antibody, human IgG1, kappa)
heavy: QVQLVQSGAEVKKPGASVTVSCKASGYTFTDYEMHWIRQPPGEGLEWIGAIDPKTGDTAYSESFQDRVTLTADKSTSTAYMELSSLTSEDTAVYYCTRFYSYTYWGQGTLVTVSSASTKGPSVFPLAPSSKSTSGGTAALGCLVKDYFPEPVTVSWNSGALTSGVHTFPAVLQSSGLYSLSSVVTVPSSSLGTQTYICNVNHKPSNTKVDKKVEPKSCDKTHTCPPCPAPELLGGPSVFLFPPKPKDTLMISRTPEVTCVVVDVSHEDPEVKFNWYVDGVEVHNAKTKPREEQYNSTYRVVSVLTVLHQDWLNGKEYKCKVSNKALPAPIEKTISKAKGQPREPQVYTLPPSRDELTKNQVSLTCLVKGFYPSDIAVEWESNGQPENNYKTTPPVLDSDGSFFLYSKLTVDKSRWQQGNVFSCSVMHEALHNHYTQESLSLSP
light: B4 light
notes: also called HoCon Ab
